Laboratory results taken from publication PMC9482650, “Quantitative fragmentomics allow affinity mapping of interactomes” (Nature Communications, 2022).

Legend:
Assay in all cases: holdup assay
Design in all cases: key: below the threshold = too weak to quantify, mostly under pKd 3.1 to 4
MPP7, Q5T2T1 = biological target: T1, MPP7, Q5T2T1
T1 sequence (Q5T2T1 134-230, limits assumed, looked up): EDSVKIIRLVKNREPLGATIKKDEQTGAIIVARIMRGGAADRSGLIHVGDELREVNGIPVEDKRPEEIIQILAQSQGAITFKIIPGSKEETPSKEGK

SNX27, Q96L92 = biological target: SNX27, Q96L92
TJP2_1, Q9UDY2 = biological target: TJP2_1, Q9UDY2
Sequence of TJP2_1, Q9UDY2 (Q9UDY2 24-128): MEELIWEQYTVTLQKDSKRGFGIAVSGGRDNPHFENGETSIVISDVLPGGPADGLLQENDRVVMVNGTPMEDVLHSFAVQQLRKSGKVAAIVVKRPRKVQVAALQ

NHERF4_1, Q86UT5-2 = biological target: NHERF4_1, Q86UT5-2
Sequence of NHERF4_1, Q86UT5-2 (Q86UT5 other isoform, or with tags, fused parts or gaps): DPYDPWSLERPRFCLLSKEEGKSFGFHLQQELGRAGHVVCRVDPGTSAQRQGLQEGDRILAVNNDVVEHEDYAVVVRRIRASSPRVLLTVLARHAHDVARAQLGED

SCRIB_3, Q14160 = biological target: SCRIB_3, Q14160
Sequence of SCRIB_3, Q14160 (Q14160 999-1103): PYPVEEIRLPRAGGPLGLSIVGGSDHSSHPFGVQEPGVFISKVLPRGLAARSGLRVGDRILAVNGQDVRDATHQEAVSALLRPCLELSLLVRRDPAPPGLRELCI

FRMPD2_3, Q68DX3 = biological target: FRMPD2_3, Q68DX3
Sequence of FRMPD2_3, Q68DX3 (Q68DX3 1073-1166): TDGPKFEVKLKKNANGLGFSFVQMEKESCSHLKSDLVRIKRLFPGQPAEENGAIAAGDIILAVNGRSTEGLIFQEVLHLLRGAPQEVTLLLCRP

DLG1_3, Q12959 = biological target: DLG1_3, Q12959
Sequence of DLG1_3, Q12959 (Q12959 457-571): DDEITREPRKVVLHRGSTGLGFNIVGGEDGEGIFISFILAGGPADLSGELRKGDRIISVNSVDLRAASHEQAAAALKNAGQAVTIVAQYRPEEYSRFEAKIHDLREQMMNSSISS

GORASP2, Q9H8Y8 = biological target: GORASP2, Q9H8Y8
LNX1_1, Q8TBB1 = biological target: LNX1_1, Q8TBB1
Sequence of LNX1_1, Q8TBB1 (Q8TBB1 261-371): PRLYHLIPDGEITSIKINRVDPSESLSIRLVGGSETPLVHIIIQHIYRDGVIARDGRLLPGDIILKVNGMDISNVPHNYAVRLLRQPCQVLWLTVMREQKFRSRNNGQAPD

Inadl_5, Q8NI35 = biological target: Inadl_5, Q8NI35
Sequence of Inadl_5, Q8NI35 (Q8NI35 673-780): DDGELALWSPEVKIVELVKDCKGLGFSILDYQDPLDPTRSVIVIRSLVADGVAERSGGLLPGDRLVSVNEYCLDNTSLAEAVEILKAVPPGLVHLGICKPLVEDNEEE

MPDZ_5, O75970 = biological target: T2, MPDZ_5, O75970
T2 sequence (O75970 695-796, limits assumed, looked up): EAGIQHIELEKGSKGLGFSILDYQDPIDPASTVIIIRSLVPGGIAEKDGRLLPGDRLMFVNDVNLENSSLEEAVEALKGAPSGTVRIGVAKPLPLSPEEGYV

SCRIB_1, Q14160 = biological target: SCRIB_1, Q14160
Sequence of SCRIB_1, Q14160 (Q14160 718-814): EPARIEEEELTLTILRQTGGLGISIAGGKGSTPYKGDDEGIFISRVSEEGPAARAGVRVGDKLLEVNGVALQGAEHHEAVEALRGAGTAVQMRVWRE

DLG3_1, Q92796 = biological target: T3, DLG3_1, Q92796
T3 sequence (Q92796 125-227, limits assumed, looked up): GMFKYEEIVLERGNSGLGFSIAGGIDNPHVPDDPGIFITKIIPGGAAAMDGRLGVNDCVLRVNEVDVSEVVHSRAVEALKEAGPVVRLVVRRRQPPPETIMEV

SCRIB_2, Q14160 = biological target: SCRIB_2, Q14160
Sequence of SCRIB_2, Q14160 (Q14160 857-960): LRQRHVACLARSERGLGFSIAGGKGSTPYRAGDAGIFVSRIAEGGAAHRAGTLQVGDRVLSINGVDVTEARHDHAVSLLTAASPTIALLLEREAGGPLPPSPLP

PTPN13_1, Q12923 = biological target: T4, PTPN13_1, Q12923
T4 sequence (Q12923 1088-1188, limits assumed, looked up): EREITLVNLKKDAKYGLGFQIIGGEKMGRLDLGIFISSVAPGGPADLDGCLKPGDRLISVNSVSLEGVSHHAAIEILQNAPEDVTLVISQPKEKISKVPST

APBA3_1, O96018 = biological target: T5, APBA3_1, O96018
T5 sequence (O96018 389-490, limits assumed, looked up): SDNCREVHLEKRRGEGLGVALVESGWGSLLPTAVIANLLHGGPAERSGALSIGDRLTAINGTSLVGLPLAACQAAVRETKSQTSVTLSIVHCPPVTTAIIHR

PICK1, Q9NRD5 = biological target: PICK1, Q9NRD5
Sequence of PICK1, Q9NRD5 (Q9NRD5 17-115): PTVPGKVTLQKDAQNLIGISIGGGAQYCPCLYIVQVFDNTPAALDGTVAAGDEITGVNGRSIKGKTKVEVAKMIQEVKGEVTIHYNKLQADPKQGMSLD

PDZRN3_1, Q9UPQ7 = biological target: T6, PDZRN3_1, Q9UPQ7
T6 sequence (Q9UPQ7 244-349, limits assumed, looked up): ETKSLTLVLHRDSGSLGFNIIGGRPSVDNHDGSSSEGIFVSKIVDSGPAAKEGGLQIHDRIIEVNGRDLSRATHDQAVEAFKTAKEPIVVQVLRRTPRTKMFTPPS

LNX2_3, Q8N448 = biological target: T7, LNX2_3, Q8N448
T7 sequence (Q8N448 463-564, limits assumed, looked up): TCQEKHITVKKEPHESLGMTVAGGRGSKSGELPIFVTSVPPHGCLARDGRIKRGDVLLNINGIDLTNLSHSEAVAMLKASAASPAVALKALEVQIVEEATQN

SHANK1, Q9Y566 = biological target: T8, SHANK1, Q9Y566
T8 sequence (Q9Y566 658-767, limits assumed, looked up): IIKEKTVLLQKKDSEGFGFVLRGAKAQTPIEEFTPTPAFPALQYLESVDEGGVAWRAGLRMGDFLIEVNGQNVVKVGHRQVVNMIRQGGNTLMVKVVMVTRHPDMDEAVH

CASK, O14936 = biological target: CASK, O14936
Sequence of CASK, O14936 (O14936 487-570): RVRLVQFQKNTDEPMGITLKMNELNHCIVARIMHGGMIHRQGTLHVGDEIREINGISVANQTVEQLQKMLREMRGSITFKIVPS

SNTG1, Q9NSN8 = biological target: T9, SNTG1, Q9NSN8
T9 sequence (Q9NSN8 52-150, limits assumed, looked up): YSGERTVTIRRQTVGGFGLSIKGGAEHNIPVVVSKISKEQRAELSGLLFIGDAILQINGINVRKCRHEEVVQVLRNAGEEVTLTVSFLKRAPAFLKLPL

DLG3_2, Q92796 = biological target: T10, DLG3_2, Q92796
T10 sequence (Q92796 221-321, limits assumed, looked up): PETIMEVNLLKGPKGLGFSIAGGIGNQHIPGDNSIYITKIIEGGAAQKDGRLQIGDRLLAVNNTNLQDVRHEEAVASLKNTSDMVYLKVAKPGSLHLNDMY

DLG4_1, P78352 = biological target: DLG4_1, P78352
Sequence of DLG4_1, P78352 (P78352 62-152): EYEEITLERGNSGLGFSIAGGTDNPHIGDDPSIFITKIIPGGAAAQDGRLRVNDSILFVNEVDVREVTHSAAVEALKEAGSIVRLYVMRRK

RHPN1, Q8TCX5 = biological target: T11, RHPN1, Q8TCX5
T11 sequence (Q8TCX5 508-602, limits assumed, looked up): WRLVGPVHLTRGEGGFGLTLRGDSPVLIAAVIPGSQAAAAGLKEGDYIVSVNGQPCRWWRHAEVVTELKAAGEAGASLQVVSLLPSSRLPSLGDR

[1] = plain residues with an end cap or a label only (N-terminal biotin on a linker: gsgsgs; C-terminal amide)
[2] = plain residues with an end cap or a label only (N-terminal biotin on a linker: ttds)

B1: AXIN1_int, O15169 (peptide)
chain: TLSLTDSSVDGIPPYR
MPP7, Q5T2T1; [1]
  pKd: below the threshold
SNX27, Q96L92; [1]
  pKd: below the threshold
TJP2_1, Q9UDY2; [1]
  pKd: below the threshold
NHERF4_1, Q86UT5-2; [1]
  pKd: below the threshold
SCRIB_3, Q14160; [1]
  pKd: below the threshold
FRMPD2_3, Q68DX3; [1]
  pKd: below the threshold
DLG1_3, Q12959; [1]
  pKd: below the threshold
GORASP2, Q9H8Y8; [1]
  pKd: below the threshold
LNX1_1, Q8TBB1; [1]
  pKd: below the threshold
Inadl_5, Q8NI35; [1]
  pKd: below the threshold
MPDZ_5, O75970; [1]
  pKd: below the threshold
SCRIB_1, Q14160; [1]
  pKd: below the threshold
DLG3_1, Q92796; [1]
  pKd: below the threshold
SCRIB_2, Q14160; [1]
  pKd: below the threshold
PTPN13_1, Q12923; [1]
  pKd: 3.5
APBA3_1, O96018; [1]
  pKd: below the threshold
PICK1, Q9NRD5; [1]
  pKd: below the threshold
PDZRN3_1, Q9UPQ7; [1]
  pKd: below the threshold
LNX2_3, Q8N448; [1]
  pKd: below the threshold
SHANK1, Q9Y566; [1]
  pKd: below the threshold
CASK, O14936; [1]
  pKd: below the threshold
SNTG1, Q9NSN8; [1]
  pKd: below the threshold
DLG3_2, Q92796; [1]
  pKd: 4.08
DLG4_1, P78352; [1]
  pKd: below the threshold
RHPN1, Q8TCX5; [1]
  pKd: below the threshold

B2: DLGAP4, Q9Y2H0 (peptide)
chain: IYVPEAQTRL
MPP7, Q5T2T1; [2]
  pKd: below the threshold
SNX27, Q96L92; [2]
  pKd: 5.41
TJP2_1, Q9UDY2; [2]
  pKd: below the threshold
NHERF4_1, Q86UT5-2; [2]
  pKd: 3.65
SCRIB_3, Q14160; [2]
  pKd: 3.98
FRMPD2_3, Q68DX3; [2]
  pKd: below the threshold
DLG1_3, Q12959; [2]
  pKd: below the threshold
GORASP2, Q9H8Y8; [2]
  pKd: below the threshold
LNX1_1, Q8TBB1; [2]
  pKd: below the threshold
Inadl_5, Q8NI35; [2]
  pKd: below the threshold
MPDZ_5, O75970; [2]
  pKd: below the threshold
SCRIB_1, Q14160; [2]
  pKd: 5.3
DLG3_1, Q92796; [2]
  pKd: below the threshold
SCRIB_2, Q14160; [2]
  pKd: below the threshold
PTPN13_1, Q12923; [2]
  pKd: below the threshold
APBA3_1, O96018; [2]
  pKd: below the threshold
PICK1, Q9NRD5; [2]
  pKd: below the threshold
PDZRN3_1, Q9UPQ7; [2]
  pKd: 3.94
LNX2_3, Q8N448; [2]
  pKd: below the threshold
SHANK1, Q9Y566; [2]
  pKd: 5.54
CASK, O14936; [2]
  pKd: below the threshold
SNTG1, Q9NSN8; [2]
  pKd: below the threshold
DLG3_2, Q92796; [2]
  pKd: below the threshold
DLG4_1, P78352; [2]
  pKd: below the threshold
RHPN1, Q8TCX5; [2]
  pKd: 4.42

B3: HPV16-E6, P03126 (peptide)
chain: SSRTRRETQL
MPP7, Q5T2T1; [2]
  pKd: below the threshold
SNX27, Q96L92; [2]
  pKd: 4.91
TJP2_1, Q9UDY2; [2]
  pKd: 4.12
NHERF4_1, Q86UT5-2; [2]
  pKd: 4.25
SCRIB_3, Q14160; [2]
  pKd: 5.29
FRMPD2_3, Q68DX3; [2]
  pKd: below the threshold
DLG1_3, Q12959; [2]
  pKd: 4.7
GORASP2, Q9H8Y8; [2]
  pKd: 4.02
LNX1_1, Q8TBB1; [2]
  pKd: 3.51
Inadl_5, Q8NI35; [2]
  pKd: below the threshold
MPDZ_5, O75970; [2]
  pKd: 3.67
SCRIB_1, Q14160; [2]
  pKd: 5.42
DLG3_1, Q92796; [2]
  pKd: 3.96
SCRIB_2, Q14160; [2]
  pKd: 4.21
PTPN13_1, Q12923; [2]
  pKd: 3.56
APBA3_1, O96018; [2]
  pKd: below the threshold
PICK1, Q9NRD5; [2]
  pKd: below the threshold
PDZRN3_1, Q9UPQ7; [2]
  pKd: 5.66
LNX2_3, Q8N448; [2]
  pKd: below the threshold
SHANK1, Q9Y566; [2]
  pKd: 3.68
CASK, O14936; [2]
  pKd: below the threshold
SNTG1, Q9NSN8; [2]
  pKd: 3.8
DLG3_2, Q92796; [2]
  pKd: 4.8
DLG4_1, P78352; [2]
  pKd: 4.73
RHPN1, Q8TCX5; [2]
  pKd: 4.23

B4: SLC1A5, Q15758 (peptide)
chain: TVASEKESVM
MPP7, Q5T2T1; [2]
  pKd: below the threshold
SNX27, Q96L92; [2]
  pKd: 5.29
TJP2_1, Q9UDY2; [2]
  pKd: below the threshold
NHERF4_1, Q86UT5-2; [2]
  pKd: below the threshold
SCRIB_3, Q14160; [2]
  pKd: 3.97
FRMPD2_3, Q68DX3; [2]
  pKd: below the threshold
DLG1_3, Q12959; [2]
  pKd: 3.55
GORASP2, Q9H8Y8; [2]
  pKd: below the threshold
LNX1_1, Q8TBB1; [2]
  pKd: below the threshold
Inadl_5, Q8NI35; [2]
  pKd: below the threshold
MPDZ_5, O75970; [2]
  pKd: below the threshold
SCRIB_1, Q14160; [2]
  pKd: 5.2
DLG3_1, Q92796; [2]
  pKd: below the threshold
SCRIB_2, Q14160; [2]
  pKd: below the threshold
PTPN13_1, Q12923; [2]
  pKd: below the threshold
APBA3_1, O96018; [2]
  pKd: below the threshold
PICK1, Q9NRD5; [2]
  pKd: below the threshold
PDZRN3_1, Q9UPQ7; [2]
  pKd: 3.61
LNX2_3, Q8N448; [2]
  pKd: below the threshold
SHANK1, Q9Y566; [2]
  pKd: below the threshold
CASK, O14936; [2]
  pKd: below the threshold
SNTG1, Q9NSN8; [2]
  pKd: below the threshold
DLG3_2, Q92796; [2]
  pKd: 3.55
DLG4_1, P78352; [2]
  pKd: 3.56
RHPN1, Q8TCX5; [2]
  pKd: 3.67
